The experiment concerns the target T1, ubiquitin (single molecule, mono-ubiquitin) (Homo sapiens (Human), UniProt P0CG47 1-76).
T1 construct: also called one ubiquitin
Nature of the experiment: isothermal titration calorimetry, one OtUBD to one ubiquitin.

From patent publication US20210102950A1 (YALE UNIVERSITY, published 2021) come the findings set out here.

B1: OtUBD (ubiquitin binding domain of an effector protein of Orientia tsutsugamushi), native unmodified domain (other)
chain: VNFLSENRMITSAAAALADTLLKNNNRITEGVLVDRIFDNKILSVQEKQQLLNNLLDNHIKENKSLTKESLTRMLASTHFVQQQANVLLNEKFNK
notes: also called OtUDB
For B1, the Kd was determined as 5.3 nM.
